Results as given in patent US20230383007A1 (BIOSION, published 2023).

T1: human TROP2-his protein (human, UniProt P09758 27-274)
T1 construct: also called biotin labeled human TROP2-his protein
T1 sequence: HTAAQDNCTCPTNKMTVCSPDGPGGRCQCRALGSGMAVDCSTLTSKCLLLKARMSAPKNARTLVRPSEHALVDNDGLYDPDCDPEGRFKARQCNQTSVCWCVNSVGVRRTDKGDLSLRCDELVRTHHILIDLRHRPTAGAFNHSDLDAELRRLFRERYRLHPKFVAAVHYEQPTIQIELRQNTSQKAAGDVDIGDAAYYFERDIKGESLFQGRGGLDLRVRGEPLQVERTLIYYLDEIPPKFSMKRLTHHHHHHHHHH

T2: cynomolgus TROP2-his protein (cynomolgus, UniProt P09758 27-272 (human entry), limits assumed)
T2 construct: also called Cyno TROP2-his; Cynomolgus monkey TROP2-his protein
T2 chain: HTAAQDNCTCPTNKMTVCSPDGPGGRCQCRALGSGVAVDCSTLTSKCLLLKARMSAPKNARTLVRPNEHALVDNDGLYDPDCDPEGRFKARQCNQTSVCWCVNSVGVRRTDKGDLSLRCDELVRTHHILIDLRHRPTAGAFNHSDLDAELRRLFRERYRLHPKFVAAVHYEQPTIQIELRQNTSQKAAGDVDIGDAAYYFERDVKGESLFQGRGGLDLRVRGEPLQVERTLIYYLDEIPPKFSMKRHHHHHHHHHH


Experiments:
[1] = molecular target: T1, human TROP2-his protein; experiment: indirect ELISA on human TROP2; unit taken from the x axis (nM)
[2] = molecular target: T2, cynomolgus TROP2-his protein; experiment: SPR Biacore; antibody captured on anti-human IgG chip, TROP2-his as analyte
[3] = molecular target: T1, human TROP2-his protein; experiment: capture ELISA: antibody captured on anti-human IgG Fc coated plate, biotin labeled human TROP2-his detected with streptavidin-HRP; unit taken from the x axis (nM)
Protocol: For the capture ELISA, 96-well plates were coated with 100 μl 2 μg/ml AffiniPure F(ab′)₂ Fragment GoatAnti-Human IgG, Fey fragment specific (Jackson Immuno Research, Cat #109-006-008) in PBS overnight at 4° C. Plates were washed once with wash buffer (PBS+0.05% v/v Tween-20, PBST) and then blocked with 200 μl/well blocking buffer (5% w/v non-fatty milk in PBST) for 2 hours at 37° C. Plates were washed 4 times and respectively incubated with 100 μl serially diluted anti-TROP2 antibodies of the disclosure, the benchmark or negative control hIgG (human immunoglobulin (pH4) for intravenous injection, Hualan Biological Engineering Inc.) (5-fold dilution in 2.5% w/v non-fatty milk in PBST, starting at 66.7 nM) for 40 minutes at 37° C., and then washed 4 times again. […] The reaction was stopped in 3-10 minutes at room temperature with 50 μl/well 1M H₂SO₄, and the absorbance of each well was read on a microplate reader using dual wavelength mode with 450 nm for TMB and 630 nm as the reference wavelength. […] Data was analyzed using Graphpad Prism software and EC₅₀ values were reported.

[4] = molecular target: T1, human TROP2-his protein; experiment: competitive ELISA: soluble benchmark pre-mixed with biotin labeled human TROP2-his, added to plate coated with the benchmark (self-competition); unit taken from the x axis (ng/mL)
Protocol: The anti-TROP2 antibodies were tested for their epitope binding in a competitive ELISA assay. Briefly, 100 μl of the benchmark at 1 μg/mL in PBS was coated on 96-well micro plates for 2 hours at 37° C. ELISA plates were washed once with wash buffer (PBS+0.05% v/v Tween-20, PBST) and then blocked with 200 μl blocking buffer (5% w/v non-fatty milk in PBST) for 2 hours at 37° C. While blocking, the anti-TROP2 antibodies of the disclosure or controls were diluted with biotin labeled human TROP2-his protein (SEQ ID NO: 16, 34 ng/mL in 2.5% w/v non-fatty milk in PBST), starting at 80 nM with a 5-fold serial dilution, and incubated at room temperature for 40 minutes. After plate washing 4 times, the antibody/TROP2-his protein mixtures were added to benchmark coated plates, 100 μl per well. After incubation at 37° C. for 40 minutes, plates were washed 4 times again using wash buffer. Then the plates were added and incubated with 100 μl Peroxidase Streptavidin (1:10000 dilution in PBST buffer, Jackson Immunoresearch, Cat #016-030-084) for 40 minutes at 37° C. Plates were washed again using wash buffer. […] The absorbance of each well was read on a microplate reader using dual wavelength mode with 450 nm for TMB and 630 nm as the reference wavelength, and the OD (450-630) values were plotted against antibody concentration. Data was analyzed using Graphpad Prism software and IC₅₀ values were reported.

Binder | EC50 [1] | Kd [2] | koff [2] | kon [2] | EC50 [3] | IC50 [4]
single domain antibody 01-9F (VHH) VHH: QVQLVESGGGSVQAGGSLRLSCVVSGLPYERYCVAWFRQGPGKEREGVARILSDGTTSYSDSVKGRFTISKDNAKNTLYLQMNSLKSEDTATYYCAAEAFRPFTPSDGDCTTVLGIDYWGKGTPVTVSS | 0.104 nM | 0.285 nM | 0.00015 s⁻¹ | 525000 M⁻¹ s⁻¹ | 0.164 nM | 
sacituzumab (benchmark, an analog of sacituzumab, in house made) (antibody, human IgG1, kappa, V domains shown, also called BM; BM1) VH: SVQLQQSGSELKKPGASVKVSCKASGYTFTNYGMNWVKQAPGQGLKWMGWINTYTGEPTYTDDFKGRFAFSLDTSVSTAYLQISSLKADDTAVYFCARGGFGSSYWYFDVWGQGSLVTVSS VL: DIQLTQSPSSLSASVGDRVSITCKASQDVSIAVAWYQQKPGKAPKLLIYSASYRYTGVPDRFSGSGSGTDFTLTISSLQPEDFAVYYCQQHYITPLTFGAGTKVEIKR | 0.162 nM | 0.436 nM | 0.000228 s⁻¹ | 522000 M⁻¹ s⁻¹ | 0.269 nM | 0.0543 µg/mL
